Article PMC5715906 (The Journal of General Physiology, 2017)

Target: the molecule itself
Experiment: crystal structure

B1: GLIC E−2′I + I9′A double mutant (receptor)
chain: QDMVSPPPPIADEPLTVNTGIYLIECYSLDDKAETFKVNAFLSLSWKDRRLAFDPVRSGVRVKTYEPEAIWIPEIRFVNVENARDADVVDISVSPDGTVQYLERFSARVLSPLDFRRYPFDSQTLHIYLIVRSVDTRNIVLAVDLEKVGKNDDVFLTGWDIESFTAVVKPANFALEDRLESKLDYQLRISRQYFSYIPNIILPMLFILFISWTAFWSTSYIANVTLVVSTLAAHIAFNILVETNLPKTPYMTYTGAIIFMIYLFYFVAVIEVTVQHYLKVESQPARAASITRASRIAFPVVFLLANIILAFLFFGF
In the case of B1, the “stoichiometry N” value is reported as 5.
